Patent US20060150268A1, “Plant-derived transferase genes” (priority 2002, published 2006)

B1: hsr201: tobacco hypersensitive response protein 201, a member of the transferase family (protein, UniProt Q8GT20 1-460, looked up)
Benzyl alcohol …: MDSKQSSELVFTVRRQKPELIAPAKPTPREIKFLSDIDDQEGLRFQIPVIQFYHKDSSMGRKDPVKVIKKAIAETLVFYYPFAGRLREGNGRKLMVDCTGEGIMFVEADADVTLEQFGDELQPPFPCLEELLYDVPDSAGVLNCPLLLIQVTRLRCGGFIFALRLNHTMSDAPGLVQFMTAVGEMARGASAPSILPVWCRELLNARNPPQVTCTHHEYDEVRDTKGTIIPLDDMVHKSFFFGPSEVSALRRFVPHHLRKCSTFELLTAVLWRCRTMSLKPDPEEEVRALCIVNARSRFNPPLPTGYYGNAFAFPVAVTTAAKLSKNPLGYALELVKKTKSDVTEEYMKSVADLMVLKGRPHFTVVRTFLVSDVTRGGFGEVDFGWGKAVYGGPAKGGVGAIPGVASFYIPFKNKKGENGIVVPICLPGFAMETFVKELDGMLKVDAPLDNSNYAIIRPAL
B2: tomHQT: hydroxycinnamoyl-CoA quinate hydroxycinnamoyl transferase from tomato, 430 amino acids, SEQ ID NO 1 (protein, listed as Lycopersicon esculentum)
chain: MGSEKMMKINIKESTLVKPSKPTPTKRIWSSNLDLIVGRIHLLTVYFYKPNGSSNFFDNKVIKEALSNVLVSFYPMAGRLGRDEQGRIEVNCNGEGVLFVEAESDSCVDDFGDFTPSLELRKLIPSVETSGDISTFPLVIFQITRFKCGGVALGGGVFHTLSDGLSSIHFINTWSDIARGLSVAVPPFIDRTLLRARDPPTYSFEHVEYHPPPTLNSSKNRESSTTTMLKFSSEQLGLLKSKSKNEGSTYEILAAHIWRCTCKARGLPEDQLTKLHVATDGRSRLCPPLPPGYLGNVVFTATPIAKSCELQSEPLTNSVKRIHNELIKMDDNYLRSALDYLELQPDLSTLIRGPAYFASPNLNINSWTRLPVHECDFGWGRPIHMGPACILYEGTIYIIPSPNSKDRNLRLAVCLDAGHMSLFEKYLYEL
B3: tobHQT: hydroxycinnamoyl-CoA quinate hydroxycinnamoyl transferase from tobacco, 436 amino acids, SEQ ID NO 2 (protein, listed as Nicotiana tabacum)
chain: MGSEKMMKINIKESTLVKPSKPTPTKRLWSSNLDLIVGRIHLLTVYFYKPNGSSNFFDSKIMKEALSNVLVSFYPMAGRLARDEQGRIEINCNGEGVLFVEAESDAFVDDFGDFTPSLELRKLIPTVDTSGDISTFPLIIFQVTRFKCGGVSLGGGVFHTLSDGLSSIHFINTWSDIARGLSVAIPPFIDRTLLRARDPPTSSFEHVEYHPPPSLISSSKSLESTSPKPSTTTMLKFSSDQLGLLKSKSKHDGSTYEILAAHIWRCTCKARALSDDQLTKLHVATDGRSRLCPPLPPGYLGNVVFTGTPMAKSSELLQEPLTNSAKRIHSALSKMDDNYLRSALDYLELLPDLSALIRGPTYFASPNLNINSWTRLPVHDSDFGWGRPIHMGPACILYEGTVYILPSPNSKDRNLRLAVCLDADHMPLFEKYLYEF

What was measured:
[1] = tested on: HQT enzyme activity (caffeoyl CoA and quinic acid as substrates); experiment: HQT enzyme assay with crude extracts from E. coli expressing the recombinant protein; assay type: biochemical, Escherichia coli; conditions: recombinant protein expressed in E. coli, decrease of caffeoyl-CoA measured spectrophotometrically (FIG. 5)
Description: As described above, HQT catalyses the production of chlorogenic acid via transfer of the caffeoyl moiety of caffeoyl-CoA to quinic acid. Such activity can be assessed, for example, using the assay described in Example 2. Briefly, the assay uses caffeoyl CoA and quinic acid as substrates, and the rate of conversion of caffeoyl CoA to chlorogenic acid is determined by spectrophotometry.
The reaction was initiated by adding the substrate quinic acid and the enzyme activity was measured spectrophotometrically as decrease of the amount of caffeoyl-CoA.
The enzyme activity was determined by spectrophotometry at 30° C. The reaction mixture contained in a total volume of 1 ml: 100 mM Na-Pi buffer pH 7.0, 1 mM EDTA, 16.8 μM caffeoyl CoA and 10-50 μl protein extract. […] The extinction coefficient for caffeoyl CoA is 1.8×10^4 M^−1 cm^−1 (ZENK et al., 1980). The synthesis of caffeoyl CoA was carried out as described previously (SEMLER et al., 1987).
The full-length cDNA of HQT from tomato was subcloned in frame into the NcoI and BamHI-sites of the expression vector pSTAG under the control of the T7 RNA-Polymerase promoter. This strategy led to the introduction of a sequence encoding an S-TAG at the 5′-end of the cDNA. According to procedures provided by the manufacturer (Novagen), the expression and purification of the fusion protein was carried out using the S-TAG™ Thrombin Purification Kit. The enzyme activity of the purified protein was then analysed in HQT enzyme assays.

[2] = tested on: leaves of Nicotiana benthamiana; experiment: Transient expression of HQT in leaves of Nicotiana benthamiana; assay type: in vivo; conditions: for HQT enzyme activity in leaves: plants expressing HQT under the control of the 35S promoter (FIG. 6); for amount of chlorogenic acid in vivo in plants: plants expressing HQT under the control of the 35S promoter, HPLC after 4 days (FIG. 6)
Description: Leaves were infiltrated with Agrobacterium tumefaciens C58C1 transformed with the plasmid pGFP, which contains the cDNA encoding GFP under control of the 35S promoter, along with bacteria transformed with either the plasmid p19 which carries a cDNA encoding a gene-silencing protein or the control plasmid pBIN19.
Soluble phenolics were extracted by vortexing 30 mg of frozen, powdered leaf material in 300 μl of 70% methanol. After addition of 100 μl distilled water, the extract was vortexed again and then spun for 10 sec at 13,000 g to pellet the debris. The supernatant was analysed by gradient HPLC (apparatus from Spectra Physics, San Jose, Calif.) using a Columbus 5-μm C18 column (25 cm×4.6 mm; Phenomenex, Macclesfiled, Cheshire, UK). Solvent A was 1 mM trifluoroacetic acid, solvent B was acetonitrile, and the gradient was run for 65 min at flow rate of 1 ml min^−1 with the following concentrations: 0 min :100% A, 0% B; 50 min: 60% A, 40% B; 60 min: 30% A, 70% B; 65 min: 100% A, 0% B. The column eluant was monitored using a Spctra Fous scanning detector (Spectra Physics). A chlorogenic acid standard (Sigma) was used to quantify the amount of chlorogenic acid in the leaf extracts.
After the transfer of the overexpression constructs pTom and pTob, and the iRNA constructs pFRNtom and pFRN-tob to Agrobacterium tumefaciens C58C1 (DEBLAERE et al., 1985) single colonies were used for growing 50 mL overnight cultures. Additional 50 ml overnight cultures of Agrobacterium tumefaciens C58C1 containing expression constructs of the green fluorescent protein (PGFP) or the gene silencing inhibitor protein 19 (p19; kindly provided by O. Vionnet) or the empty binary vectors pBIN19 and pFRN were also grown. The cells were precipitated by centrifugation at 4000 g for 20 min and resuspended in 50 ml 10 mM MgCl2. After addition of 50 μl 100 mM acetosyringene the cells were incubated at room temperature overnight. To overexpress HQT similar amounts of the cultures containing pGFP, pTom, pTob were mixed with the same volume of cultures containing either pBIN19 or p19 and each mixture was used to infiltrate three leaves of a Nicotiana benthamiana plant. […] For gene silencing the cultures containing pFRN-tom, pFRN-tob and pFRN were used to infiltrate three leaves of Nicotiana benthamiana.

| Molecule | HQT enzyme activity [1] | HQT enzyme activity ([1]; listed as Hsr201) | HQT enzyme activity in leaves [2] | amount of chlorogenic acid in vivo in plants [2] [fold] |
| --- | --- | --- | --- | --- |
| B1 | no enzyme activity was detected | no HQT enzyme activity |  |  |
| B2 | showed HQT enzyme activity |  | Increased HQT enzyme activity | 2 |
| B3 |  |  | Increased HQT enzyme activity | 2 |
